Assay results reported in patent publication US20240279341A1 (Alector, published 2024).
Values belong to the binder of their own block, whether it stands above or below them.

Legend:
[1] = target: T1, human MerTK on M2c-differentiated human macrophages (human, UniProt Q12866 21-999); test: cell-based or functional assay
T1 sequence: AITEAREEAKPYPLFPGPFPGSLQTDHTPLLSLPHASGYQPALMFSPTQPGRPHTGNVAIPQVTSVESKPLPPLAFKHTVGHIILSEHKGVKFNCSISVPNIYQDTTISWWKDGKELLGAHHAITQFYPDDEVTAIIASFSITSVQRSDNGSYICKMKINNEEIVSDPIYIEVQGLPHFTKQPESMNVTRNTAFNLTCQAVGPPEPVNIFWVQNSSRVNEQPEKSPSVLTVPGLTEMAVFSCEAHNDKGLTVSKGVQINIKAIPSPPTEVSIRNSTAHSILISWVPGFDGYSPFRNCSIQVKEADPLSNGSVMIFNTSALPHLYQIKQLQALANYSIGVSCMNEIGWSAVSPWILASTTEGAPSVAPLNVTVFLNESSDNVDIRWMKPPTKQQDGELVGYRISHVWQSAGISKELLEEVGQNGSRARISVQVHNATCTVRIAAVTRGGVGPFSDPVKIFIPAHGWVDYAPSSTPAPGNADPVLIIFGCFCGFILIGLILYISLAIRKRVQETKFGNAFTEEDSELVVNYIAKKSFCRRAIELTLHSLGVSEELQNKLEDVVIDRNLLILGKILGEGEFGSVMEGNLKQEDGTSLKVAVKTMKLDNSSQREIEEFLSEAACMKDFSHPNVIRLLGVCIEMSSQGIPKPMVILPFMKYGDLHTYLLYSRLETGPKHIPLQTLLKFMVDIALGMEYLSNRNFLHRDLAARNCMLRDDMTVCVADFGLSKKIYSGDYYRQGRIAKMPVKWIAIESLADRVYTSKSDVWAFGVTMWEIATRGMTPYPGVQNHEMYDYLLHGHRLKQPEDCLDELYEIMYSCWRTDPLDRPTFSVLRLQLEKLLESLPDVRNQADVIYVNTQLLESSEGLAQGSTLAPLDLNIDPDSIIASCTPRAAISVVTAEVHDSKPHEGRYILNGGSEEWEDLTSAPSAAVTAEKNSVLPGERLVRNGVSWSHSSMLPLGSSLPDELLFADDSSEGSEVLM

[2] = target: T2, recombinant human MerTK extracellular domain (human, UniProt Q12866 21-505); test: SPR (Carterra LSA), antibody immobilized, MerTK ECD as analyte; estimate, fits not ideal for a 1:1 model
T2 construct: also called huMerTK; not shown: PolyHis tag or TEVS/Thrombin/murine IgG2a Fc tag (a DDDDK-tagged commercial protein is also mentioned); which form was t
T2 sequence: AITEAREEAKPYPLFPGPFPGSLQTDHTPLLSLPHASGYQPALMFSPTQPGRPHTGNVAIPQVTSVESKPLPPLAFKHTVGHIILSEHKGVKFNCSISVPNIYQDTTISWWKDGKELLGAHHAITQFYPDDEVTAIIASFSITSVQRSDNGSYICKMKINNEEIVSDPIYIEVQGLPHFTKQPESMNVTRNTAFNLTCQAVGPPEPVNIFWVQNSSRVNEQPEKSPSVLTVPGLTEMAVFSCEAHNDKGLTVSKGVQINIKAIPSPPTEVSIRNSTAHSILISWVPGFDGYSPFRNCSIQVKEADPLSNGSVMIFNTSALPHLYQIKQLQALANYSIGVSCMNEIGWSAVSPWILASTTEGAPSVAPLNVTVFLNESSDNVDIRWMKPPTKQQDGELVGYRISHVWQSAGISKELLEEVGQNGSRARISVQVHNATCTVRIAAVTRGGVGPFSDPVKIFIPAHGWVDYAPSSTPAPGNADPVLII
Description: (§1) Binding kinetics of bispecific anti-MerTK:anti-PDL1 antibodies of the present disclosure to human, cyno, and murine MerTK were evaluated using a Carterra LSA instrument. […] A HC30 sensor chip (Carterra) was activated using the single channel flow cell with a 7-minute injection of a 1:1:1 mixture of 100 mM MES pH 5.5, 100 mM sulfo-NHS, 400 mM EDC (all reconstituted in MES pH 5.5; 100 μl of each mixed in vial immediately before running assay). After switching to the multi-channel array flow cell, the antibodies were injected over the activated chip in a 96-spot array for 15 minutes. A duplicate injection of the antibodies on a second block of the chip was spotted as before. The remaining unconjugated active groups on the chip were then blocked by injecting 1M Ethanolamine pH 8.5 (Carterra) for 7 minutes using the single channel flow cell.
(§2) After priming with running buffer (HBS-TE, Carterra) with 0.5 mg/ml BSA (Sigma), the immobilized anti-MerTK antibodies were tested for their ability to bind to several forms of recombinant MerTK extracellular domain, including that of human, cynomolgus, and mouse orthologs as described above. Estimates of affinity were generated by injecting each analyte over the entire antibody array using the single channel flow cell. […] Dissociation was followed for 300 seconds before regenerating after each injection with 2×30 seconds of 10 mM Glycine pH2.5. Three buffer blanks were run between each series (one species per series). After all concentrations of all three species of MerTK were injected, a duplicate set of injections was performed, so that each concentration for all three species was injected in widely spaced duplicates. Data were processed and analyzed using NextGenKIT high-throughput kinetics analysis software (Carterra).

[3] = target: T3, recombinant cynomolgus MerTK extracellular domain (cynomolgus monkey, UniProt Q12866 21-505 (human entry)); test: as above
T3 construct: also called cynoMerTK; cyno MerTK; not shown: PolyHis tag or TEVS/Thrombin/murine IgG2a Fc tag
T3 chain: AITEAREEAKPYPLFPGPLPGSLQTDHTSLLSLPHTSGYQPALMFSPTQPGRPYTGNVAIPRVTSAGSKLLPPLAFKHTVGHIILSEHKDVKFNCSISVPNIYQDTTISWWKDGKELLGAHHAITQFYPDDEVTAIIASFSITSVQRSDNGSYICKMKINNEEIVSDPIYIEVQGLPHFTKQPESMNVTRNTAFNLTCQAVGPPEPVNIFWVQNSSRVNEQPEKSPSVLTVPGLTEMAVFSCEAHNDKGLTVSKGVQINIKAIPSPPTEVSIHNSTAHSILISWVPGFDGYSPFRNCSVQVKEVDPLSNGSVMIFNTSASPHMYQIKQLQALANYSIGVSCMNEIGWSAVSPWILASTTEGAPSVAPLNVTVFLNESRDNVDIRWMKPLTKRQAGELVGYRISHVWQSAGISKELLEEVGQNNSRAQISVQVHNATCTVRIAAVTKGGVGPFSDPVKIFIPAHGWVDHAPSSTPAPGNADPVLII
Description: as §1, §2

B1: monovalent anti-MerTK antibody MTK-16.2 (antibody, V domains shown)
VH: QVQLVQSGSELKKPGASVKVSCKASGYTFTNHGMNWVRQAPGQGLEWMGWINTYTGEPTYADDFKGRFVFSLDTSVSTAYLQISSLKAEDTAVYYCARKGVTAARYFDYWGQGTLVTVSS
VL: DIQMTQSPSSLSASVGDRVTITCRASQNVRTAVAWYQQKPGKAPKRLIYLASNRHTGVPSRFSGSGSGTEFTLTISNLQPEDFATYYCLQHWNYPLTFGGGTKLEIK
Average IC50 (nM) in the presence of huGas6 (huGas6-mediated pAKT reducing activity) [1]: 15.3 nM | Kd [2]: 50 nM | Kd [3]: 60 nM

B2: bispecific anti-MerTK MTK-16.2:anti-PDL1 antibody (bispecific antibody, V domains shown)
VH 1: B1 VH
VL 1: B1 VL
VH 2: not shown
VL 2: not shown
Average IC50 (nM) in the presence of huGas6 (huGas6-mediated pAKT reducing activity) [1]: 12.3 nM | Kd [2]: 30 nM | Kd [3]: 30 nM

B3: bivalent anti-MerTK antibody MTK-16.2 (full IgG) (antibody, V domains shown)
VH: B1 VH
VL: DIQMTQSPSSLSASVGDRVTITCRASQNVRTAVAWYQQKPGKAPKRLIYLASNRHTGVPSRFSGSGSGTEFTLTISNLQPEDFATYYCLQHWNYPLTFGGGTKLEIKR
Average IC50 (nM) in the presence of huGas6 (huGas6-mediated pAKT reducing activity) [1]: 3.22 nM | Kd [2]: 50 nM | Kd [3]: 60 nM

These reach a lower Kd [2]. Values come first.

Average IC50 (nM) in the presence of huGas6 (huGas6-mediated pAKT reducing activity) [1]: 17.9 nM | Kd [2]: 2 nM | Kd [3]: 3 nM
B4: monovalent anti-MerTK antibody MTK-33.11 (antibody, V domains shown)
VH: QVQLVQSGAEVKKPGASVKVSCKASGYTFTSYWMHWVRQAPGQGLEWIGVIDPSDNYINYNQKFQGRVTMTRDTSTSTVYMELSSLRSEDTAVYYCAREAWTRGYFDYWGQGTLVTVSS
VL: DIQMTQSPSSLSASVGDRVTITCQASRSVRNTVAWYQQKPGKAPKLLIYYASNRYTGVPSRFSGSGSGTDFTFTISSLQPEDIATYYCQQDYRSPFTFGQGTKLEIK

Average IC50 (nM) in the presence of huGas6 (huGas6-mediated pAKT reducing activity) [1]: 9.03 nM | Kd [2]: 2 nM | Kd [3]: 2 nM
B5: bispecific anti-MerTK MTK-33.11:anti-PDL1 antibody (bispecific antibody, V domains shown)
VH 1: B4 VH
VL 1: B4 VL
VH 2: not shown
VL 2: not shown

Average IC50 (nM) in the presence of huGas6 (huGas6-mediated pAKT reducing activity) [1]: 1.25 nM | Kd [2]: 2 nM | Kd [3]: 2 nM
B6: bivalent anti-MerTK antibody MTK-33.11 (full IgG) (antibody, V domains shown)
VH: B4 VH
VL: DIQMTQSPSSLSASVGDRVTITCQASRSVRNTVAWYQQKPGKAPKLLIYYASNRYTGVPSRFSGSGSGTDFTFTISSLQPEDIATYYCQQDYRSPFTFGQGTKLEIKR
